Substitutions are numbered along the chain they refer to.
B1: CD16-VH-RM72 (antibody)
chain: EVQLVESGGGLVQPGGSLRLSCAASGFTFSNYGMSWVRQAPGKGLEWIGSIYYSGQTNYNPSLKSLVTISRDNSKNTLYLQMNSLRAEDTATYYCARESIDYWGQGTLVTVSS
B2: BM156-01 (antibody)
chain: B1 chain with Q56S
B3: CD16-VH-RM81 (antibody)
chain: B1 chain with S54T, Q56S
B4: CD16-VH-RM77 (antibody)
chain: B1 chain with S54N, Q56S
B5: CD16-VH-RM75 (antibody)
chain: B1 chain with Q56D
B6: CD16-VH-RM73 (antibody)
chain: B1 chain with Q56T
B7: CD16-VH-RM76 (antibody)
chain: B1 chain with Q56E
B8: CD16-VH-RM82 (antibody)
chain: B1 chain with G55V, Q56S
B9: CD16-VH-RM80 (antibody)
chain: B1 chain with S54D, Q56S
B10: BM130-92 (Margetuximab) (antibody)
chain 1: QVQLQQSGPELVKPGASLKLSCTASGFNIKDTYIHWVKQRPEQGLEWIGRIYPTNGYTRYDPKFQDKATITADTSSNTAYLQVSRLTSEDTAVYYCSRWGGDGFYAMDYWGQGASVTVSSASTKGPSVFPLAPSSKSTSGGTAALGCLVKDYFPEPVTVSWNSGALTSGVHTFPAVLQSSGLYSLSSVVTVPSSSLGTQTYICNVNHKPSNTKVDKRVEPKSCDKTHTCPPCPAPELVGGPSVFLLPPKPKDTLMISRTPEVTCVVVDVSHEDPEVKFNWYVDGVEVHNAKTKPPEEQYNSTLRVVSVLTVLHQDWLNGKEYKCKVSNKALPAPIEKTISKAKGQPREPQVYTLPPSRDELTKNQVSLTCLVKGFYPSDIAVEWESNGQPENNYKTTPLVLDSDGSFFLYSKLTVDKSRWQQGNVFSCSVMHEALHNHYTQKSLSLSPGK
chain 2: DIVMTQSHKFMSTSVGDRVSITCKASQDVNTAVAWYQQKPGHSPKLLIYSASFRYTGVPDRFTGSRSGTDFTFTISSVQAEDLAVYYCQQHYTTPPTFGGGTKVEIKRTVAAPSVFIFPPSDEQLKSGTASVVCLLNNFYPREAKVQWKVDNALQSGNSQESVTEQDSKDSTYSLSSTLTLSKADYEKHKVYACEVTHQGLSSPVTKSFNRGEC

molecular target: Human CD16A 158V (human); test: BLI
Target sequence in this assay (chain, as listed by the source): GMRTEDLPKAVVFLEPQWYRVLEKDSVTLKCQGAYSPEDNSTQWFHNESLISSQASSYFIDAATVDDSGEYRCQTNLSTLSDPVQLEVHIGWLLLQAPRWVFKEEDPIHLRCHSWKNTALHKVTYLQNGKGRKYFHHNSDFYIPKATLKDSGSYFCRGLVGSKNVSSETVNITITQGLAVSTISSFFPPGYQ

Row | Binder | Kd [nM]
1 | B1 | 4.38
2 | B2 | 20.6
3 | B3 | 2.69
4 | B4 | 5.31
5 | B5 | 3.51
6 | B6 | 8.2
7 | B7 | 16.2

molecular target: Human CD16A 158F (human); test: BLI

Row | Binder | Kd [nM]
8 | B1 | 4.58
9 | B2 | 5.15
10 | B3 | 2.45
11 | B4 | 1.24
12 | B5 | 2.62
13 | B8 | 5.26
14 | B6 | 2.41
15 | B7 | 6.06
16 | B9 | 3.99

molecular target: Human CD16A 158V (human); test: ELISA

Row | Binder | EC50 [nM]
17 | B10 | 45.1

molecular target: Human CD16A 158F (human); test: ELISA
Target sequence in this assay (chain, as listed by the source): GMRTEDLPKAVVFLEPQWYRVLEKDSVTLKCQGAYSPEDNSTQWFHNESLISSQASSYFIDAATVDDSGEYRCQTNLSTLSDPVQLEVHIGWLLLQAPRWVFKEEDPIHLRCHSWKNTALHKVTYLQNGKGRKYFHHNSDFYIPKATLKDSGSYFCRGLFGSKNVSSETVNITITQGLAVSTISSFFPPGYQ

Row | Binder | EC50 [nM]
18 | B1 | 1.89
19 | B2 | 7.66
20 | B3 | 1.25
21 | B4 | 1.21
22 | B5 | 3.04
23 | B8 | 3.29
24 | B6 | 3.29
25 | B7 | 2.2
26 | B9 | 3.03

molecular target: Human CD16A 158V (human); test: ELISA; remark: another data set of the same source

Row | Binder | EC50 [nM]
27 | B1 | 1.86
28 | B2 | 4.57
29 | B3 | 1.8
30 | B4 | 1.42
31 | B5 | 2.06
32 | B8 | 3.2
33 | B6 | 4.2
34 | B7 | 2.71
35 | B9 | 3.32

Molecular target: T1, Human CD16B (human)
T1 chain: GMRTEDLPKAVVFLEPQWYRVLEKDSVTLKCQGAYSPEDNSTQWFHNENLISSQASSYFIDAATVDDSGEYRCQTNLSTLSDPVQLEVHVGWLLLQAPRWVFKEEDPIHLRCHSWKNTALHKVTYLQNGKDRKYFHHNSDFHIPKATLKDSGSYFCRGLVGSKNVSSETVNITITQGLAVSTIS
Test: ELISA

Row | Binder | binding result
36 | B10 | no binding

From US20260327314 (published 2026)
